Results taken from article PMC5033702.

How the values were obtained:
[1] = target: DDX5-K144N (MBP-DDX5-GST) (UniProt P17844 1-614, K144N); experiment: fluorescence anisotropy
DDX5 WT (MBP-DDX5-GST) = DDX5 WT (MBP-DDX5-GST) (UniProt P17844 1-614); experiment: fluorescence anisotropy
DDX5 WT (MBP-DDX5-GST), sequence (P17844 whole entry): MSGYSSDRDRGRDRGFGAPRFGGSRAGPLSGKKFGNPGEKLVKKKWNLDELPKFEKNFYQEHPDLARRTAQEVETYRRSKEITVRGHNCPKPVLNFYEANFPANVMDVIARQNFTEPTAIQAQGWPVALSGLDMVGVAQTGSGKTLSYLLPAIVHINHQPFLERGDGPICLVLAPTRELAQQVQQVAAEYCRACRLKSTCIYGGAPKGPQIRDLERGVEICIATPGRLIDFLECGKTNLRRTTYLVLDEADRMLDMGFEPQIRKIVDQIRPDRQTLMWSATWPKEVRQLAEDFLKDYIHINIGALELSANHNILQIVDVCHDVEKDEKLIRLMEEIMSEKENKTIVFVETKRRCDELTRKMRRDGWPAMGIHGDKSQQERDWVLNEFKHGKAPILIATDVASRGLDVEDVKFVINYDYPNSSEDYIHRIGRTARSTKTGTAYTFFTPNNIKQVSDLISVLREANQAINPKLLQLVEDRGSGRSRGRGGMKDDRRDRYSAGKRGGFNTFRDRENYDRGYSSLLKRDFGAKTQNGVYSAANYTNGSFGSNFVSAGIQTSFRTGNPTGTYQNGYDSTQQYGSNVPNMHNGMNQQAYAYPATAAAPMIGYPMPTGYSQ

DDX5-K144N (MBP-DDX5-GST), sequence (P17844 whole entry K144N): as the sequence (P17844 whole entry) above, with K144N counted along it

AGCACCGUAAAGACGC (ssRNA) [6-FAM ssRNA 16-mer] was tested, and the binding signal [1] was ~4 fold reduced affinity vs WT (nearly 4-fold) and the binding result (DDX5 WT (MBP-DDX5-GST)) was “binds”.
